{
  "source": "patent US20130289246A1",
  "binders": {"B1": {"name": "mAb 5I17 (antibody, V domains shown)", "VH": "EVQLVESGGGVVQPGRSLRLSCAASGFSFSNYAMHWVRQAPGKGLEWVALISFDGSDKYYADSVKGRFTMSRDNSKNTLYLQMNSLRAEDTAVYYCARDEPYCGGDCFAFDVWGQGTMVTVS", "VL": "DIQLTQSPSSLSASAGDRVSMTCRASQIISSSLNWYQQKPGKAPKLLIYAASNLQSGVPSRFSGSGSGTDFTLTISSLQPEDFATYYCQQSYSTPPELTFGGGTKVDIKR"}},
  "assay_in_all_cases": "ELISA, supernate",
  "key": {"[1]": {"biological_target": "first-generation H3 LAH construct H3frThrST (Influenza A virus (H3))"}, "[2]": {"biological_target": "first-generation H1 LAH construct H1frThrST (Influenza A virus (H1))"}, "[3]": {"biological_target": "first-generation H1 LAH construct H1frThrST (Influenza A virus (H1))", "remark": "listed apart in the source"}},
  "note": "Where two headings read alike, the source gives them in different places.",
  "data": [
    {"binder": "B1", "values": [
      {"measurement": "OD", "setting": "[1]", "result": 0.07, "unit": "OD"},
      {"measurement": "OD", "setting": "[2]", "result": 0.07, "unit": "OD"},
      {"measurement": "OD", "setting": "[3]", "result": 0.078, "unit": "OD"}
    ]}
  ]
}
